To fix the notation:
B1: CPEB3 Ribozyme (parent)
chain: UAACAGGGGGCCACAGCAGAAGCGUUCACGUCGCAGCCCCUGUCAGAUUCUGGUGAAUCUGCGAAUUCUGCUGUAUAUCUC

This data set covers variants of B1. As to the kind of experiment: self-cleavage, relative activity (ratio to wild type); higher = more cleavage; in vitro, sequencing. An outline of the steps:
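Relative activity compares each variant's cleaved/total read fraction with that of the unmutated ribozyme. To get these fractions, barcoded CPEB3 ribozyme libraries from rounds of error-prone PCR were transcribed with T7 RNA polymerase for 5 hours at 37°C and then given 15 min of DNase I treatment before EDTA was added. The RNAs were reverse transcribed with template switching and sequenced on Illumina, and DNA sequencing linked barcodes to variants. A minimum of 5 reads applied, and three batches were averaged.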
Consider UAACAGGGGGCCACAGCAGAAGCGUUCACGUCGCAGCCCCUGUCAGAUUCUGGUGAAUCUGCGGAUUCUGCUGUACAUCUC, for which the self-cleavage was 0.94. In the case of UAACAGGGGGCGACAGCAGAAGCGUUCACGUCGCAGCCCCUGUCAGAUUCUGGUGAAUCUGCGAAUUCAGCUGUAUAUCUC it was 0.3. The figure for UAUCAGGGGGCCACAGCAGAUGCGUUCACGUCGCAGCCCCUGUCAGAUUCUGGUGAAUCUGCGAAUUCUGCUGUAUAUCUC is 0.56; for UAACAGGGGGCCACAGCAGAAGCGUACACGUCGCAGCCCCUGUCAGAUUCUGGUGAAUCUGCGCAUUCUGCUGUAUAUCUC it is 0.5; for UAACAGGGGGCCAAAGCAGAAGCGUUCACGUCGCAGCCCCUGUCAGAUUCUGGUGAAUCCGCGAAUUCUGCUGUAUAUCUC it is 0.29. In the case of UAACAGGGGGCCACAGCAGAAGCGUUCACGUCGCAGCCCCUGUCAGAUUCGGGUGAAUCUGCGAAUUCUGCUGUAAAUCUC it was 1.19.

Turning to UAACAGGGGGCCACAGUAGAAGCGUUCACGUCGCAGCCCCUGUCAGAUUCUGGUGAAUCUGCGUAUUCUGCUGUAUAUCUC, the self-cleavage amounted to 0.3. The figure for UAACAGGGGGCCACAGCAGAAGCGUUCACGUCGCAGCCCCUGUCAGAUUCUGGUGAAUCUGCGAAUUCUGCUGUGUAACUC is 1.3. The figure for CAACAGGGGGCCUCAGCAGAAGCGUUCACGUCGCAGCCCCUGUCAGAUUCUGGUGAAUCUGCGAAUUCUGCUGUAUAUCUC is 1.13. As to UAUCAGGGGGCCACAGCAGAAGCGUUCACGUCGUAGCCCCUGUCAGAUUCUGGUGAAUCUGCGAAUUCUGCUGUAUAUCUC, the self-cleavage worked out at 0.51. Consider UAACAGGGGGCCACAGCAGAAGCGUUCACGACGCAGCCCCUGUCAGAUUCUCGUGAAUCUGCGAAUUCUGCUGUAUAUCUC, for which the self-cleavage came to 0.5.

UAACAGGGGGCCACAGCAGAAACGUUCACGUCGCAGCCCCUGGCAGAUUCUGGUGAAUCUGCGAAUUCUGCUGUAUAUCUC: the self-cleavage was determined as 0.09. In the case of UAACAGGGGGCCACAGCAGAAGCGUUCACGUCGCAGCCCCUGUCAGAUUCUGGUGAAUCUGCGAAUUAUGCUGUACAUCUC it was 0.54; in that of UAACAGGGGGCCACAGCAGAAGCGUACACGUCGCAGCCCCUGUCAGGUUCUGGUGAAUCUGCGAAUUCUGCUGUAUAUCUC, 0.84. The figure for CAACAGGGGGCCACAGCAGAAGCGUUCACGUCGCAGCCCCUGUCAGAUUCUGGUGAAUCUGCGAAUUCUGUUGUAUAUCUC is 0.54. In the case of UAACAUGGGGCCACAGCAGAAGCGUUCACGUCGCAGCCCCUGUCUGAUUCUGGUGAAUCUGCGAAUUCUGCUGUAUAUCUC it was 0.19; in that of UAACAGGGGGCCACAGCAGAAGCGAUCACGUCGCAGCCCAUGUCAGAUUCUGGUGAAUCUGCGAAUUCUGCUGUAUAUCUC, 0.22.

For UAACAGGGGGCCACAGCAGAAGCGCUCACGUCGCAGCCCCUGUCAGAUUCUGCUGAAUCUGCGAAUUCUGCUGUAUAUCUC, the self-cleavage came out at 0.15.

In the case of UAACAGGGGGCCACAGCAGAAGCGCUCACGUCGCAGCCCCUGUCAGAGUCUGGUGAAUCUGCGAAUUCUGCUGUAUAUCUC, the self-cleavage amounted to 0.39. In the case of UGACAGGGGGCCACAGCAGAAGCGUUCACGUCGCAGCUCCUGUCAGAUUCUGGUGAAUCUGCGAAUUCUGCUGUAUAUCUC it was 0.68; in that of UAACAGGGGGCCACAGCAGAAGCGCUCACGUCGCAGCCCCUGUCAGAUUCUGGUGAAUCUGCGAAUUCUACUGUAUAUCUC, 0.3; in that of UAACAGGGGGCCUCAGCAGAAGCGUUCACGUCGCAGCCCCUGUCAGAUUCUGGUGAAUCUGCAAAUUCUGCUGUAUAUCUC, 1.05. In the case of CAACAGGGGGCCACAGCAGAAGCGUUCACGUCGCAGCCCCUGUCAGAUUCUGGUGAAUCUGCGAAUUCCGCUGUAUAUCUC it was 0.46. As for UAACAGAGGGCCACAGCAGAAGCGUACACGUCGCAGCCCCUGUCAGAUUCUGGUGAAUCUGCGAAUUCUGCUGUAUAUCUC, the self-cleavage is 0.28.

Take UAACAGGGGGCCACAGCAGAAGCGUUCACGUCGCAGCCCCUGUCAGAAUCUGGUGAAUCUGCGAAUUCUGCUGUAUAUCUC: the self-cleavage turned out to be 0.48. For the variant UAACAGGGGGCCACUGCAGAAGCGGUCACGUCGCAGCCCCUGUCAGAUUCUGGUGAAUCUGCGAAUUCUGCUGUAUAUCUC, the self-cleavage worked out at 0.46. The figure for UAACAGGGGGCCACAGCAGAAGCGUCCACGUCGCAGCCCCAGUCAGAUUCUGGUGAAUCUGCGAAUUCUGCUGUAUAUCUC is 0.28; for UAACAGGGGGCCACAGCAGGAGCGUUCAUGUCGCAGCCCCUGUCAGAUUCUGGUGAAUCUGCGAAUUCUGCUGUAUAUCUC it is 0.36. In the case of UAACAGGGGGCCACAGCAGAAGCGUUCACGUCGCAGCCCCUGUCAGAUUCUGGUGAAUCUGCGAAUUCAGCUGUAUAUCUA, the self-cleavage was 0.98.

Take UAACAGGGGGCUACAGCAGAAGCGUUCACGUCGCAGCCCCUGUCAGAUUCUGGUGAAUCUGCGAAUUCUGCUGUAUAUCAC: the self-cleavage stood at 1.26. The figure for UAACAGGGGGCCACAGCAGAUGCGUUCACGUCGCAGCCCCUGACAGAUUCUGGUGAAUCUGCGAAUUCUGCUGUAUAUCUC is 0.5; for UAACAGGGGGCCACAGCAGAAGCGUUCACGUCUCAGCCCCUGUCAGAUUCUGGUGAAUCUGCGAACUCUGCUGUAUAUCUC it is 0.13; for UAACAGGGGGCCACAGCAGAAGCGUUCACGUCGCAGCCCCUGUCAGAUGCUGGUGAAUCUGCGAAUCCUGCUGUAUAUCUC it is 0.31. As to UAACAGGGGGCCACAGCAGAUGCGUUCACGUCGCAGCCCCUGUCAGAUUCUGGUGAAUCUGCGAAUACUGCUGUAUAUCUC, the self-cleavage was 0.19.

(Values after the RNAGym collection of RNA variant scans (doi:10.1093/nar/gkz1192).)
